According to article PMC9442473, “Centriole growth is limited by the Cdk/Cyclin-dependent phosphorylation of Ana2/STIL” (The Journal of Cell Biology, 2022):

Target: the molecule itself
Assay: fluorescence correlation spectroscopy (FCS), photon-count rate per molecule (CPM); point FCS in the cytoplasm of living syncytial embryos at the beginning of nuclear cycle 12, 25.0-26.0°C; CPM compared with monomeric (mNG) and dimeric (dNG) NeonGreen controls

Protein | stoichiometry N
Ana2-mNG (natural protein, Drosophila melanogaster, UniProt Q9XZ31 1-420, looked up, Ana2 (fly homologue of STIL), Drosophila melanogaster; mNG with a short linker knocked in at the C-terminus of the endogenous locus; The protein appeared overexpressed about 2-4X against the untagged one; also called Ana2/STIL; WT Ana2-mNG; source: CRISPR/Cas9 knock-in at the endogenous locus, in the cytoplasm of living Drosophila syncytial embryos; not shown: mNeonGreen (mNG), C-terminal, kept) MFVPETEDMLPRLAPRPSAAVPMGHTNEIIGPTVPEVSILFGQPPQDPQMQPQQPNHAHQESSPRAAPTFASWKKQMLPRVNFSPILATELGPRTAPSSNSPCSSKEYQVMPRDRNYASDAQQTTNHMNCNAGGYNAEPKQQAYQSRRLSSSSNADVLTICAGTQTDPFNPSPPRKSLPQVVYSDIDVSNLANKSDLAALVSLVESVRHEQQQLRNLCEMILEQQQRAKPEAISKASSTTGTQCDILTTNQAGRRLSPIMQDYIAEEEEPLPPPQARVIPQFPSPRPHPPIAQSTGYRANTPQAKRIPQLAKPNTEKSMVMNELALKYLRQPVDELMKDMRLGASPKSPNPEPLRPIDNIGHAQSPNDISNASYKYLKKYRLLPEEQLEPVCPQSPMAATAPSPHIQLDLENIRNQPKLL | ~2
mNG-Ana2 (natural protein, Drosophila melanogaster, UniProt Q9XZ31 1-420, looked up, Ana2 (fly homologue of STIL), Drosophila melanogaster; mNG with a short linker knocked in at the N-terminus of the endogenous locus; also called Ana2/STIL; source: CRISPR/Cas9 knock-in at the endogenous locus, in the cytoplasm of living Drosophila syncytial embryos; not shown: mNeonGreen (mNG), N-terminal, kept) MFVPETEDMLPRLAPRPSAAVPMGHTNEIIGPTVPEVSILFGQPPQDPQMQPQQPNHAHQESSPRAAPTFASWKKQMLPRVNFSPILATELGPRTAPSSNSPCSSKEYQVMPRDRNYASDAQQTTNHMNCNAGGYNAEPKQQAYQSRRLSSSSNADVLTICAGTQTDPFNPSPPRKSLPQVVYSDIDVSNLANKSDLAALVSLVESVRHEQQQLRNLCEMILEQQQRAKPEAISKASSTTGTQCDILTTNQAGRRLSPIMQDYIAEEEEPLPPPQARVIPQFPSPRPHPPIAQSTGYRANTPQAKRIPQLAKPNTEKSMVMNELALKYLRQPVDELMKDMRLGASPKSPNPEPLRPIDNIGHAQSPNDISNASYKYLKKYRLLPEEQLEPVCPQSPMAATAPSPHIQLDLENIRNQPKLL | ~2
